Positions count from the first letter of the chain named. Where “and” joins values, the source holds several entries; their conditions need not be identical. Identical values can stand only once.
Assays:
[1] = target: T1, human FAP avi his, biotinylated (human, UniProt Q12884 27-759, biotin on the avi-tag); assay: SPR, bacterial supernatant;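 further: SPR at 25 °C with biotinylated human or murine FAP captured via neutravidin, aVH-containing bacterial supernatants diluted 1:3 as analyte, 600 s dissociation, blank supernatant without aVH as reference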
T1 construct: also called huFAP

[2] = target: T2, murine FAP avi his, biotinylated (murine, UniProt P97321 27-761, biotin on the avi-tag); assay: SPR, bacterial supernatant;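 further: SPR at 25 °C with biotinylated human or murine FAP captured via neutravidin, aVH-containing bacterial supernatants diluted 1:3 as analyte, 600 s dissociation, blank supernatant without aVH as reference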
T2 construct: also called muFAP; mu FAP

[3] = target: T1, human FAP avi his, biotinylated; assay: SPR, purified aVH, FAP immobilised
[4] = target: T2, murine FAP avi his, biotinylated; assay: SPR, purified aVH, FAP immobilised
[5] = target: T3, soluble human Lag3-IgG1-Fc with biotinylated C-terminal Avi-tag (human, biotin on the Avi-tag); assay: A375 MHCII competition ELISA
T3 construct: Lag3 ECD, IEGRMD linker, IgG1 Fc, Avi-tag; also called LAG3-Fc-avi; biotinylated LAG3-Fc

[6] = target: T3, soluble human Lag3-IgG1-Fc with …; assay: A375 MHCII competition ELISA, 3 ug/ml
[7] = target: T4, recombinant human LAG3 Fc Chimera Protein (R&D Systems, 2319-L3) (human, UniProt P18627 23-450); assay: SPR, captured antibody, LAG3 Fc analyte
T4 construct: Bought
T4 sequence (looked up): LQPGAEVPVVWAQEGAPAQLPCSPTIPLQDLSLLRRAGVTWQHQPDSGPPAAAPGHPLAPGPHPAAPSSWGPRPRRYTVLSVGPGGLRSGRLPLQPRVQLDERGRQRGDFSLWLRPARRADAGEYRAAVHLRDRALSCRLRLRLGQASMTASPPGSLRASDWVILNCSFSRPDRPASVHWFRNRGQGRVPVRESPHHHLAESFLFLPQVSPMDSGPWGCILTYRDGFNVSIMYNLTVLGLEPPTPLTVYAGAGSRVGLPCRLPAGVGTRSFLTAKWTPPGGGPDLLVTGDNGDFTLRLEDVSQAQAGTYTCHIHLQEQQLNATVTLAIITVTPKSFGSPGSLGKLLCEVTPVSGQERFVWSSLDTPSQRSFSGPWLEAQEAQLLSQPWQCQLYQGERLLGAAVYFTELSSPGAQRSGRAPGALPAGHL

[8] = target: T5, human LAG3 on recombinant CHO cells (human, UniProt P18627 23-525); assay: cell ELISA, CHO-LAG3
T5 construct: whole, on cells; also called Lag3 cells
T5 sequence (looked up): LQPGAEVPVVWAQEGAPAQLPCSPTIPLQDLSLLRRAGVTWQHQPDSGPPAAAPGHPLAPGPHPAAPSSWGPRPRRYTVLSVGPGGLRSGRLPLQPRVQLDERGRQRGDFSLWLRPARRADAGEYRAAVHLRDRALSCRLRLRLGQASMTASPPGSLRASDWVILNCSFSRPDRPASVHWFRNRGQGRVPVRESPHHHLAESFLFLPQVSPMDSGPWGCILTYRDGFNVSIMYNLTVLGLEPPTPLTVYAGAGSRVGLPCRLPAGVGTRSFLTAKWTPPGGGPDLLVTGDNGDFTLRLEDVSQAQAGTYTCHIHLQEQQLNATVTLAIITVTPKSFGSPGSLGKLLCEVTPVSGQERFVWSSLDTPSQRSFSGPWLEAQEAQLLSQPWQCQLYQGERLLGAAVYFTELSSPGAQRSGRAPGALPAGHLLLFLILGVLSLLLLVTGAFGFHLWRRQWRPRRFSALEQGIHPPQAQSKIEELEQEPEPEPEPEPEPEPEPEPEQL

[9] = target: T4, recombinant human LAG3 Fc Chimera …; assay: ELISA, coated LAG3 Fc
[10] = target: T6, MCSP antigen, amino acids 1553 to 2184 of matured MCSP with C-terminal avi-tag and His-tag, biotinylated (Homo sapiens (Human), UniProt Q6UVK1 1582-2213, limits assumed, biotin on the avi-tag); assay: ELISA, supernatant on biotinylated antigen
T6 construct: also called recombinant MCSP
T6 sequence: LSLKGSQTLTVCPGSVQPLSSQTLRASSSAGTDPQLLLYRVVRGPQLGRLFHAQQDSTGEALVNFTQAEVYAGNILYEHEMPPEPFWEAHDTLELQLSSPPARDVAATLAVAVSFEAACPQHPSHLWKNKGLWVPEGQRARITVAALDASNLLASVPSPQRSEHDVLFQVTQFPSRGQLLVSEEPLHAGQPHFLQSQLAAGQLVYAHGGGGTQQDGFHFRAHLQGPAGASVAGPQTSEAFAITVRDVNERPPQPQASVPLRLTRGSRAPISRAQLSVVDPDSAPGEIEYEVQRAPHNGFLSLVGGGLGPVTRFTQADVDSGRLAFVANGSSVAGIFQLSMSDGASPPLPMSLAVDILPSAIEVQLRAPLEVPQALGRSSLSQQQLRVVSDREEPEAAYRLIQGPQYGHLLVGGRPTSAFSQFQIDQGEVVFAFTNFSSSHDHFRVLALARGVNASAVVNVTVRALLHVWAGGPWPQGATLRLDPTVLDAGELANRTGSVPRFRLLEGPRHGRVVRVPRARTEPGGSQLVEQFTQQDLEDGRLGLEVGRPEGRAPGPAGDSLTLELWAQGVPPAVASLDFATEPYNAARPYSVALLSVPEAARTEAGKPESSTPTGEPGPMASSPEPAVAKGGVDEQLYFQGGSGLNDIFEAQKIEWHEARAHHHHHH

[11] = target: T7, murine LAG3-Fc antigen (R&D Systems, 3328-L3-050) (murine, UniProt Q61790 24-442); assay: ELISA, murine LAG3-Fc
T7 construct: Bought
T7 sequence (looked up): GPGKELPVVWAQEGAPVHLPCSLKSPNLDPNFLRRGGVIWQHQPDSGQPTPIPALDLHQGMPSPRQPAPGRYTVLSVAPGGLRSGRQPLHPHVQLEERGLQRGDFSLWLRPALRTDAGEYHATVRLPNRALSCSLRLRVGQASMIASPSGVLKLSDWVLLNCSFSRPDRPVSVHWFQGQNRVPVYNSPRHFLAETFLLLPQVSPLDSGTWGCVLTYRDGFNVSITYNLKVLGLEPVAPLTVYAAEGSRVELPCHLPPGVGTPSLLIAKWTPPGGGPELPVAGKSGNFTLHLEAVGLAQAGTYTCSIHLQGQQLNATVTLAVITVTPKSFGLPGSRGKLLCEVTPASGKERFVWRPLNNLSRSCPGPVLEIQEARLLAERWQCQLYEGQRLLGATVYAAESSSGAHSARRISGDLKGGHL

[12] = target: T4, recombinant human LAG3 Fc Chimera …; assay: SPR, captured aVH-Fc, LAG3 Fc analyte
[13] = target: T3, soluble human Lag3-IgG1-Fc with …; assay: ELISA, supernatant on biotinylated antigen

B1: anti-FAP aVH P034.090 (VHH)
VHH: EVQLVESGGGLVQPGGSLRLSCAASGFNIKDTCIGWVRRAPGKEEELVANICSSYGHTRYADSVKGRFTISADTSKNTAYLQMNSLRAEDTAVYYCASSYTIYRYSYWGQGTTVTVSS
**Q.** Which results are given for B1?
**A.** koff [1]: 0.00107 s⁻¹; koff [2]: 0.0255 s⁻¹; Kd [3]: 0.846 nM; koff [3]: 0.00046 s⁻¹; kon [3]: 552000 M⁻¹ s⁻¹

B2: anti-FAP aVH P047.001 (VHH)
VHH: B1 VHH with S53G, S54K, Y55I, H57I, S98N, Y103V, S106D
**Q.** B2 was tested. Which koff [1] did it give?
**A.** 0.00542 s⁻¹

**Q.** And the koff [2]?
**A.** 0.0157 s⁻¹

**Q.** What about the Kd [3] of the same binder?
**A.** 1.15 nM

**Q.** And the koff [3]?
**A.** 0.00133 s⁻¹

**Q.** And the kon [3]?
**A.** 1.15e+06 M⁻¹ s⁻¹

**Q.** And the Kd [4]?
**A.** 24.5 nM

**Q.** And the koff [4]?
**A.** 0.00784 s⁻¹

**Q.** And the kon [4]?
**A.** 320000 M⁻¹ s⁻¹

B3: MDX 25F7 (antibody, V domains shown)
VH: QVQLQQWGAGLLKPSETLSLTCAVYGGSFSDYYWNWIRQPPGKGLEWIGEINHNGNTNSNPSLKSRVTLSLDTSKNQFSLKLRSVTAADTAVYYCAFGYSDYEYNWFDPWGQGTLVTVSS
VL: EIVLTQSPATLSLSPGERATLSCRASQSISSYLAWYQQKPGQAPRLLIYDASNRATGIPARFSGSGSGTDFTLTISSLEPEDFAVYYCQQRSNWPLTFGQGTNLEIK
**Q.** Which IC50 [5] does the source give for B3 here?
**A.** 0.127 µg/mL and 0.8 nM

**Q.** And the “% Inhibition” value [6]?
**A.** 90.4%

**Q.** What about the koff [7] of the same binder?
**A.** 0.00039 s⁻¹

**Q.** And the t½ [7]?
**A.** 0.5 h

**Q.** And the OD max [8]?
**A.** 2.06

**Q.** And the EC50 [9]?
**A.** 0.0031 µg/mL and 0.02 nM

**Q.** And the OD max [9]?
**A.** 3.39

B4: anti-FAP aVH P049.004 (VHH)
VHH: EVQLVESGGGLVQPGGSLRLSCAASSFNIKDTYIGWVRRAPGKEEELVANIYCNYGYTRYADSVKGRFTISCDTSKNTAYLQMNSLRAEDTAVYYCATSHTRYHYKYWGQGTTVTVSS
**Q.** How did the koff [1] turn out when B4 was run?
**A.** 0.00508 s⁻¹

**Q.** And the koff [2]?
**A.** 0.00207 s⁻¹

**Q.** What about the Kd [4] of the same binder?
**A.** 23 nM

**Q.** And the koff [4]?
**A.** 0.00102 s⁻¹

**Q.** What about the kon [4] of the same binder?
**A.** 51000 M⁻¹ s⁻¹

B5: SEQ ID NO 61 (VHH)
VHH: EVQLVESGGGLVQPGGSLRLSCAASSFNIKDTYIGWVRRAPGKGTELVAGIYCEAGITRYADSVKGRFTISCDTSKNTAYLQMNSLRAEDTAVYYCAGKGIGNYFDYWGQGTTVTVSS
notes: also called MCSP-specific aVH
**Q.** Does B5 bind [10]?
**A.** binds

B6: SEQ ID NO 59 (VHH)
VHH: EVQLVESGGGLVQPGGSLRLSCAASSFNIKDTYIGWVRRAPGKGTELVADIYCSEGSTRYADSVKGRFTISCDTSKNTAYLQMNSLRAEDTAVYYCAAVSDYVVFYYWGQGTTVTVSS
notes: also called MCSP-specific aVH
**Q.** Does B6 bind [10]?
**A.** binds

B7: 9B4 aVH-Fc, bivalent (PG-LALA) (Fc fusion)
chain: EVQLVESGGGLVQPGGSLRLSCAASGFNIKDTCIGWVRRAPGKGTELVAEICQDIGYTRYADSVKGRFTISADTSKNTAYLQMNSLRAEDTAVYYCAAVEVAEYFEYWGQGTTVTVSS
notes: not shown: linker and human IgG1 Fc (PG-LALA)
**Q.** With B7 as the binder, how does the IC50 [5] read?
**A.** 0.0762 µg/mL and 1 nM

**Q.** Does B7 bind [11]?
**A.** no binding

**Q.** And the koff [12]?
**A.** 0.00019 s⁻¹

**Q.** And the t½ [12]?
**A.** 1.02 h

**Q.** What about the “% Inhibition” value [6] of the same binder?
**A.** 95.5%

**Q.** What about the EC50 [8] of the same binder?
**A.** 0.0288 µg/mL and 0.4 nM

**Q.** What about the OD max [8] of the same binder?
**A.** 1.3

**Q.** What about the EC50 [9] of the same binder?
**A.** 0.0194 µg/mL and 0.3 nM

**Q.** And the OD max [9]?
**A.** 1.2

B8: P10D1 aVH-Fc, bivalent (PG-LALA) (Fc fusion)
chain: B7 chain with N28S, G35A, Q53E, V99K, V101A, A102G, E103V, Y104G, E106D
notes: as for B7
**Q.** Which results are given for B8?
**A.** IC50 [5]: 0.0933 µg/mL and 1.2 nM; binding result [11]: no binding; koff [12]: 0.00011 s⁻¹; t½ [12]: 1.7 h; % Inhibition [6]: 93.4%; EC50 [8]: 0.029 µg/mL and 0.4 nM; OD max [8]: 1.2; EC50 [9]: 0.113 µg/mL and 1.5 nM; OD max [9]: 0.9

B9: SEQ ID NO 97 (VHH)
VHH: B7 chain with Q53D, A98S, V99Q, V101H, A102Q, E103W, Y104S, E106K
notes: also called LAG3-specific aVH
**Q.** Does B9 bind [13]?
**A.** binds

B10: SEQ ID NO 89 (VHH)
VHH: B7 chain with Q53T, I55A, V99S, V101S, A102P, E103S, Y104G, E106R
notes: also called LAG3-specific aVH
**Q.** Does B10 bind [13]?
**A.** binds

B11: SEQ ID NO 83 (VHH)
VHH: B7 chain with Q53E, V99N, V101H, A102S, E103V, Y104G, E106N
notes: also called LAG3-specific aVH
**Q.** Does B11 bind [13]?
**A.** binds

B12: SEQ ID NO 95 (VHH)
VHH: B7 chain with D31Y, T32Q, Q53S, D54Y, I55D, V99E, V101S, A102V, Y104G, E106I
notes: also called LAG3-specific aVH
**Q.** Does B12 bind [13]?
**A.** binds

B13: SEQ ID NO 91 (VHH)
VHH: B7 chain with Q53H, V99E, V101H, A102V, E103A, Y104S
notes: also called LAG3-specific aVH
**Q.** Does B13 bind [13]?
**A.** binds

B14: SEQ ID NO 85 (VHH)
VHH: B7 chain with A98G, V99E, V101G, E103T, Y104N, E106K
notes: also called LAG3-specific aVH
**Q.** Does B14 bind [13]?
**A.** binds
